Patent US7708999B2, “Remedies for arthritis” (Kyowa Hakko Kirin Co., Ltd., priority 2001, dated 2010)

How the values were obtained:
[1] = system: rat monoiodoacetic acid-induced osteoarthritis model; test: Rat monoiodoacetic acid-induced osteoarthritis model; assay type: in vivo; conditions: 4 mg/mL, 0.5 mL per 100 g intraperitoneally once; 3 days after monoiodoacetic acid
Method: The rat monoiodoacetic acid-induced osteoarthritis model was produced in the following manner by the method of Guingamp et al. (Guingamp C. et al., Arthritis Rheum., 40, 1670-1679, 1997) using Sprague-Dawley rats (male, 7 weeks old, Japan Charles River).
Monoiodoacetic acid (manufactured by Sigma-Aldrich) prepared with saline to a final concentration of 10 mg/mL was injected into the right knee joint of the rat in an amount of 25 μL. One group consisted of 10 rats. Anti-FGF-8 neutralizing antibody KM1334 was dissolved in saline (manufactured by Otsuka Seiyaku Kojo) to a final concentration of 4 mg/mL, and the antibody solution at a dose of 0.5 mL per 100 g of the body weight was intraperitoneally administered to a KM1334 administrated group once at the injection of monoiodoacetic acid. To saline group, the saline alone was intraperitoneally administered instead of the antibody solution. Further, a sham operated group was arranged, and the saline was injected in the knee joint thereof without the administration of the agent. After 3 days from the injection of monoiodoacetic acid, the joint washing liquid was recovered by the method described in Example 6. The amount of glycosaminoglycan in the joint lavage fluid was measured by the DMMB method described in Example 1.

[2] = system: rat adjuvant arthritis model; test: Rat adjuvant arthritis model; assay type: in vivo
Method: The rat adjuvant arthritis model was performed in the following manner according to the method of Pearson et al. (Pearson CM. et al., Arthritis Rheum., 5, 654-658, 1962) using Lewis rats (female, 8 weeks old, Japan Charles River).
Mycobacterium butyricum (manufactured by Difco) was suspended in a liquid paraffin (manufactured by Wako Pure Chemical Industries, Ltd.) to a final concentration of 6 mg/mL, and sterilized with a autoclave. The resulting solution was intradermally injected into the rat right hind pad in an amount of 100 μL for sensitization. One group consisted of 8 to 10 rats. Anti-FGF-8 neutralizing antibody KM1334 was dissolved in saline to a final concentration of 2 mg/mL. The solution was intraperitoneally administered to a KM1334 administrated group once a day at a dose of 0.5 mL per 100 g of the body weight for each rat on the sensitization day of the rat adjuvant arthritis model and on days 3, 7, 10, 14 and 17 from the sensitization. To saline administrated group, only saline was intraperitoneally administered instead of the anti-FGF-8 neutralizing antibody KM1334 solution. Further, sodium diclofenac, an antiinflammatory agent, was dissolved in a 0.5 w/v % methyl cellulose solution to a final concentration of 0.3 mg/mL, and the solution was orally administered to a sodium diclofenac administrated group as a positive control once a day at a dose of 1 mL per 100 g of the body weight on days 4, 7 to 11 and 14 to 18 from the adjuvant sensitization day. 50 mg of methotrexate® for injection (manufactured by Wyeth Japan) as a metabolic antagonist was dissolved in a 0.5 w/v % methyl cellulose solution to a final concentration of 0.01 mg/mL, and the solution was administered to a methotrexate administrated group in the same manner as in the sodium diclofenac administrated group. Prednisolone (manufactured by Sigma-Aldrich), a steroidal agent, was suspended in a 0.5 w/v % methyl cellulose solution to a final concentration of 0.3 mg/mL, and the suspension was administered to a prednisolone administrated group in the same manner as in the sodium diclofenac administrated group. Further, a 0.5 w/v % methyl cellulose solution alone was orally administered to a solvent administrated group in the same manner. An untreated group was used, and it was not subjected to sensitization with Mycobacterium butyricum and administration of an agent. The volumes of the adjuvant-treated paw and the adjuvant-untreated paw were measured as time goes by using a device for measuring edemas of rat hind paw (TK-101, manufactured by Unicom).
Using urine collected for 24 hours at day 20 and day 21 after the sensitization, the amounts of glycosaminoglycan, deoxypyridinoline, hydroxyproline and creatinine in urine were measured. The amount of glycosaminoglycan in urine was measured by the DMMB method described in Example 1. The amount of hydroxyproline in urine was measured by the method of Ikeda et al. (Ikeda Shingo et al., Tokyo Eiken Nenpo, 36 277-282, 1985). That is, 0.8 mL of hydrochloric acid for amino acid analysis (manufactured by Kanto Kagaku) was added to 0.8 mL of urine to hydrolyze at 110° C. for 15 hours. To 0.5 mL of the hydrolyzed sample was added 2 mL of a 1.2 mol/L sodium hydroxide solution for neutralization. 1 mL of isopropanol was added to 0.5 mL of the neutralized sample, and 1 ml of an oxidant solution was added. The mixture was stirred well, and allowed to stand at room temperature for 5 minutes. […]

[3] = adjuvant-untreated paw, score 0 to 4, mean ± standard error
[4] = urine day 20 to 21, KM1334 intraperitoneally, vs saline group

B1: KM1334: anti-FGF-8 neutralizing monoclonal antibody produced by hybridoma KM1334 (FERM BP-5451), mouse IgG1 subclass (antibody, V domains shown)
VH: QVQLQQSGAEVARPGASVKLSCKASGYTFTDYYLNWVKQRSGQGLEWIGEIDPGSDSIYYNENLEGRATLTADKSSSTAYMQLNSLTSEDSAVYFCARYGYSRYDVRFVYWGQGTLVTVST
VL: DVLMTQTPLSLPVSLGDQASISCRSSQSLVHSNGRTYLEWYLQKPGQSPKVLIYKVSNRISGVPDRFSGSGSGTDFTLKISRVEAEDLGVYFCFQGSHVPYTFGGGTKLEIK
inhibition of the increase in concentration of glycosaminoglycan in the joint lavage fluid [1]: 42%
Bone destruction score ([2]; Table 1, soft X-ray of calcaneus, adjuvant-untreated paw, day 21, maximum 5, mean ± standard error): 3.2 ± 0.5
Bone destruction score (% inhibition) ([2]; Table 1, vs saline group, not significant): 27%
Pathological score: Blood cell plasma leak to articular cavity [2, 3]: 1.6 ± 0.3
Pathological score: Blood leak around joint [2, 3]: 2.0 ± 0.4
inhibition of the increase in paw volume, adjuvant-untreated paw ([2]; day 21, 2 mg/mL, 0.5 mL per 100 g intraperitoneally, vs saline group): 69%
decrease of the increase in amount of hydroxyproline in urine ([2]; urine day 20 to 21, KM1334 intraperitoneally, not significant): 48%
inhibition of the increase in amount of deoxypyridinoline in urine (deoxypyridinoline/creatinine ratio) [2, 4]: 41%
inhibition of the increase in amount of glycosaminoglycan in urine (glycosaminoglycan/creatinine ratio) [2, 4]: 73%
Blood cell plasma leak to articular cavity (Percent inhibition) ([2]; vs saline group): 41%
Blood leak around joint (Percent inhibition) ([2]; vs saline group): 41%
